This data set concerns the target T1, Killin/N8-50 peptide (Homo sapiens, UniProt B2CW77 SEQ:8-49).
T1 chain: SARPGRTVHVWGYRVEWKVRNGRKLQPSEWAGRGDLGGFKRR
Description: EMSA; apparent Kd; 20 mM Tris-Cl pH 8.4, 25 mM KCl, 1.5 mM MgCl2, 100 ug/mL BSA, RT. The following applies: protein: synthetic, tags: chemically synthesized 42 aa peptide (Sigma-Genosys, at least 70% purity). An excerpt: After annealing, probes for artificial replication fork (LL and RL) or double-stranded DNA template (LL and RLM) were end-labeled with α-³²P-dATP (Perkin-Elmer) using Klenow (New England Biolab). Single-stranded oligonucleotide (LL) was end-labeled with […] (Perkin-Elmer) using T4 polynucleotide kinase (New England Biolab). After purifying with Sephadex-G50 spin columns (Roche), the labeled probes (200,000 CPM each) were mixed with an increasing amount of Killin/N8-50 peptide in the presence of 20 mM Tris-Cl (pH 8.4), 25 mM KCl, 1.5 mM MgCl₂ and 100 μg/mL of BSA. The reaction mixtures were incubated at RT for 30 min and separated on a 6% polyacrylamide gel with 1× TBE buffer. After drying the gel onto a Whatman No. 1 filter paper, the DNA-protein complexes were visualized by autoradiography. For binding kinetics, bands from DNA-peptide complex were excised and the radioactivity was determined by scintillation counting. To determine the stability of the DNA-Killin peptide complex, 0.5 μg of either double-stranded (RF form) or single-stranded (viral form) of PhiX174 bacterial phage DNA (New England Biolab) were incubated at room temperature for 30 min with 1 ug of Killin/N8-50 peptide in a 20 μL reaction. The samples were then resolved on a 0.8% TAE agarose gel and stained with ethidium bromide.

In the case of TTTGCACGTCGGATCCGACCCAGACTACGGAGGCC (ssDNA) [LL single-stranded oligonucleotide], the Kd (label: 32P (T4 PNK)) is 500 nM.

B1: LL/RL artificial replication fork (structured_DNA)
DNA 1: TTTGCACGTCGGATCCGACCCAGACTACGGAGGCC
DNA 2: CCGGAGGCATCAGACGGTCGGATCCGACGTGC
For the molecule B1, the Kd (label: 32P (Klenow fill-in), replication fork with unpaired arms) came out at 1000 nM.

B2: LL/RLM double-stranded DNA (dsDNA)
DNA 1: TTTGCACGTCGGATCCGACCCAGACTACGGAGGCC
DNA 2: GGCCTCCGTAGTCTGGGTCGGATCCGACGTGC
Consider B2, for which the Kd (label: 32P (Klenow fill-in)) stood at 1000 nM.

(Values after patent US20100261778, “Tumor Suppressor Killin” (published 2010).)
